According to patent US20240287484:

Assays:
Settings in all cases: qPCR; 3 mM MgCl2, 37 C
[1] = tested on: T1, MG153-7 RT (uncultivated organism (metagenomic))
T1 sequence: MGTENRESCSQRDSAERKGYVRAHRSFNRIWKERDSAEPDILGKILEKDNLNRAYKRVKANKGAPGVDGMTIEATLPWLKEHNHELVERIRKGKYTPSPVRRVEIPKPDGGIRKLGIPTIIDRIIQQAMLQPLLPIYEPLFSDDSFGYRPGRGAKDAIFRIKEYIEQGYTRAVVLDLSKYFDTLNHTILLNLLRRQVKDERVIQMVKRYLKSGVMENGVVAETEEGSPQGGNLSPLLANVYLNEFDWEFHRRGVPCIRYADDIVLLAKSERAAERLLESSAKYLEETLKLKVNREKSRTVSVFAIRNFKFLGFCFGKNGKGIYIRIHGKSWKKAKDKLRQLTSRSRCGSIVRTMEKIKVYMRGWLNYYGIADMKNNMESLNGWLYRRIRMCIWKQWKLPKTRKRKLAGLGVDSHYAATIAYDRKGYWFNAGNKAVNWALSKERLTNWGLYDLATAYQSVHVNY

[2] = tested on: T2, MG153-28 RT (uncultivated organism (metagenomic))
T2 sequence: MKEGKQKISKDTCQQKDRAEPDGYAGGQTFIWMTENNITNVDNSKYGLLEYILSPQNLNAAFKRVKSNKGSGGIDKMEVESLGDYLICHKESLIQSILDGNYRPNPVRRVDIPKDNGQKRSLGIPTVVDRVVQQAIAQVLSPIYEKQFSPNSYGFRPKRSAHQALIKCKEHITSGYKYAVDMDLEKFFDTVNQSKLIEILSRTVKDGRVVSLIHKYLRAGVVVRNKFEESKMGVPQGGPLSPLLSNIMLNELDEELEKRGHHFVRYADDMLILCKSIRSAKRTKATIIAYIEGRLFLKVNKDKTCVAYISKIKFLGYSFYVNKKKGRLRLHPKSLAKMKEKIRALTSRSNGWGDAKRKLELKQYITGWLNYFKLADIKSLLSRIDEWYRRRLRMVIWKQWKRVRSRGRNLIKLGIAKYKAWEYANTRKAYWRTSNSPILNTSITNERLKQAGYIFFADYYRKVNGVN

[3] = tested on: T3, MG153-11 RT (uncultivated organism (metagenomic))
T3 sequence: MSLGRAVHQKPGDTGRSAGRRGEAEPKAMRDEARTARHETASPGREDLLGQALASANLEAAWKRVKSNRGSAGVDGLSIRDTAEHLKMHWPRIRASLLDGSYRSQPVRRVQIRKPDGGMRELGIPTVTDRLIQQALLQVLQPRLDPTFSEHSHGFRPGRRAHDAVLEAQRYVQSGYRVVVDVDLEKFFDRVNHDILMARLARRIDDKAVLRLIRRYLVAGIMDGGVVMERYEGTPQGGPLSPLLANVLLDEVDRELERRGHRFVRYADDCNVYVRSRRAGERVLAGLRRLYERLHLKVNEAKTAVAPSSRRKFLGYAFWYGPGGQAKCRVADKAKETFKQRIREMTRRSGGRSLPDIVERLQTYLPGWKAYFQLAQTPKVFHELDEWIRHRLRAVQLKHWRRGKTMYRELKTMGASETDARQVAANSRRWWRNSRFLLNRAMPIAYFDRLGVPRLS

[4] = tested on: T4, MG153-26 RT (uncultivated organism (metagenomic))
T4 sequence: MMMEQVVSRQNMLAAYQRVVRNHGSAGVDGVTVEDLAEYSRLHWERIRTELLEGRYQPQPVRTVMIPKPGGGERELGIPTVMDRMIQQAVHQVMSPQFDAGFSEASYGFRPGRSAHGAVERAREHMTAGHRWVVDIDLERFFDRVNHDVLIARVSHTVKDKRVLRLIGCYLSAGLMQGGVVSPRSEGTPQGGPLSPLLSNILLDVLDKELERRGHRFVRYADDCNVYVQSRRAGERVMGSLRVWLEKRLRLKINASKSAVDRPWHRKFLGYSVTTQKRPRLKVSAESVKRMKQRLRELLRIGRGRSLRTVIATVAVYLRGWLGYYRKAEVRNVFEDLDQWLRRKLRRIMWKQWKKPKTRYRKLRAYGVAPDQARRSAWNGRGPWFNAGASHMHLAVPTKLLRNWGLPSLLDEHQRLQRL

[5] = tested on: T5, MG153-14 RT (uncultivated organism (metagenomic))
T5 sequence: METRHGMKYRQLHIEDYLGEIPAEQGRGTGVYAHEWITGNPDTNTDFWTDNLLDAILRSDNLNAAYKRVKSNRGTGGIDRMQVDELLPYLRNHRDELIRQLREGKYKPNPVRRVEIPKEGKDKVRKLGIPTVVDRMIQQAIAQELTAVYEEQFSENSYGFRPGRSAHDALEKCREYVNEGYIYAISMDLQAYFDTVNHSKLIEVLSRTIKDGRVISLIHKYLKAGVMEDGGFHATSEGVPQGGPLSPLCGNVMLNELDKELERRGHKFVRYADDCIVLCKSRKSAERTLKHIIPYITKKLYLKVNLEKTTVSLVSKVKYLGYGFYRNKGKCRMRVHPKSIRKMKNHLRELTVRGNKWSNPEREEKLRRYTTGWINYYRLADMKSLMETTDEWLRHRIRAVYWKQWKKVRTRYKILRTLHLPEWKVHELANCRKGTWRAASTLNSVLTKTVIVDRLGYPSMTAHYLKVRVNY

[6] = tested on: T6, MG153-39 RT (uncultivated organism (metagenomic))
T6 sequence: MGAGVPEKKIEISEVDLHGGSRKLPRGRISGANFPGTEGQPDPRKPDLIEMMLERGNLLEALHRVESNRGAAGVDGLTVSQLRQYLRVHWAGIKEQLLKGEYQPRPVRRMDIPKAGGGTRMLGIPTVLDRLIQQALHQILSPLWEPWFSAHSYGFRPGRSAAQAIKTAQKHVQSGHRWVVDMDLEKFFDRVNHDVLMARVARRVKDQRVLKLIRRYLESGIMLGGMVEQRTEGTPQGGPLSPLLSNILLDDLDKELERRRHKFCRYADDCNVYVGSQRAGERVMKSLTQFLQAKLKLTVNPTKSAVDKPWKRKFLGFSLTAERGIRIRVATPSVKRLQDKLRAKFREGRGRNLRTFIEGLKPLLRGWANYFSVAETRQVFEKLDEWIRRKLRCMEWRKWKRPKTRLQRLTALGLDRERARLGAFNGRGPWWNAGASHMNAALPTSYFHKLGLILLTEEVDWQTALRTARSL

Measured: activity (fold over background)

200 nt RNA template annealed to DNA primer
> 10: all assays above
